T1: GRIP1_5, Q9Y3R0
T1 sequence (Q9Y3R0 568-668, limits assumed, looked up): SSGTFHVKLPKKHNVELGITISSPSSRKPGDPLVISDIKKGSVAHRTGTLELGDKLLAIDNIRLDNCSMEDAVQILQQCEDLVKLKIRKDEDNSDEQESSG

T2: FRMPD1, Q5SYB0
T2 sequence (Q5SYB0 52-145, limits assumed, looked up): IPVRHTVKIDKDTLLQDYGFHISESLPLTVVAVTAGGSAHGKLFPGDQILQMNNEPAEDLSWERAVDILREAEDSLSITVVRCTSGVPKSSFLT

T3: GRIP1_7, Q9Y3R0
T3 sequence (Q9Y3R0 999-1096, limits assumed, looked up): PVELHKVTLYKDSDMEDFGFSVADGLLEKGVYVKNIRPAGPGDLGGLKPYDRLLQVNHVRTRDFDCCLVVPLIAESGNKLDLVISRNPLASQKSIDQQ

T4: LIN7A, O14910
T4 sequence (O14910 103-200, limits assumed, looked up): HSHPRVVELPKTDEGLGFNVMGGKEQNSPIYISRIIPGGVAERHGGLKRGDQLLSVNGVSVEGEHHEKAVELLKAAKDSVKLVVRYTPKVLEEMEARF

T5: PCLO, Q9Y6V0
T5 sequence (Q9Y6V0 4491-4600, limits assumed, looked up): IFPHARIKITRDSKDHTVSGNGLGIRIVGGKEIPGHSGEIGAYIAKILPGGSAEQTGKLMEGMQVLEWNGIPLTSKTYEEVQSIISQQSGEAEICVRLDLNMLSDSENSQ

T6: SYNJ2BP, P57105
T6 sequence (P57105 8-110, limits assumed, looked up): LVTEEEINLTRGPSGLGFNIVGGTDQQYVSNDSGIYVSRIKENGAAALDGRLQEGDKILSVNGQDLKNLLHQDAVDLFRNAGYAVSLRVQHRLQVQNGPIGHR

T7: PDZRN3_1, Q9UPQ7
T7 sequence (Q9UPQ7 244-349, limits assumed, looked up): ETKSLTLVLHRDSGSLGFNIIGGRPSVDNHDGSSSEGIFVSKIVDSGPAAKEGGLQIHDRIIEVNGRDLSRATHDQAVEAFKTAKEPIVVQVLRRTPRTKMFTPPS

T8: PTPN13_1, Q12923
T8 sequence (Q12923 1088-1188, limits assumed, looked up): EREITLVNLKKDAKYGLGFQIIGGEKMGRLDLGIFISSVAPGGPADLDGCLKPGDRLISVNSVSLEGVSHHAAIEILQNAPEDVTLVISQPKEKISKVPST

T9: MPP7, Q5T2T1
T9 sequence (Q5T2T1 134-230, limits assumed, looked up): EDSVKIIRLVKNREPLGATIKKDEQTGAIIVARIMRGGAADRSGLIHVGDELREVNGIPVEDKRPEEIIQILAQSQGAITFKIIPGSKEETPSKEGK

T10: ARHGAP21, Q5T5U3
T10 sequence (Q5T5U3 45-169, limits assumed, looked up): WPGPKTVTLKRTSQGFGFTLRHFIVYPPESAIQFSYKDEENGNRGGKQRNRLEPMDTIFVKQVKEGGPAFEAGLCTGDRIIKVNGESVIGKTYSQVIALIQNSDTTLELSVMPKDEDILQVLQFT

T11: MPP6, Q9NZW5
T11 sequence (Q9NZW5 125-219, limits assumed, looked up): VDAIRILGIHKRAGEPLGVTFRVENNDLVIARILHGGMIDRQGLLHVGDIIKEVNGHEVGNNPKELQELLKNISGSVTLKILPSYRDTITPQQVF


Columns and labels:
Test in all cases: holdup assay
Set-up in all cases: key: below the threshold = too weak to quantify, mostly under pKd 3.1 to 4
Settings in all cases: plain residues with an end cap or a label only (N-terminal biotin on a linker: ado-ado)
[1] = target: NHERF4_2, Q86UT5
NHERF4_2, Q86UT5, sequence (Q86UT5 220-308): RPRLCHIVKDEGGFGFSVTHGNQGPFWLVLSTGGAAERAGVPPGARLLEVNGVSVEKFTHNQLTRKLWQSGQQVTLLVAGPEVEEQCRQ

[2] = target: MAGI1_1, Q96QZ7
MAGI1_1, Q96QZ7, sequence (Q96QZ7 1-106): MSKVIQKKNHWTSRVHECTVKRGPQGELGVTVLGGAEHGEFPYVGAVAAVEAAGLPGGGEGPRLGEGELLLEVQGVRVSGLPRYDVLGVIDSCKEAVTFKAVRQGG

[3] = target: MAGI2_5, Q86UL8
MAGI2_5, Q86UL8, sequence (Q86UL8 915-1017): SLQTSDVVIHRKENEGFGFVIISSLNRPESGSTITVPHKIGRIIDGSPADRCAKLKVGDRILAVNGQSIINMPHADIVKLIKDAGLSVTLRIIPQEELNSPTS

[4] = target: DLG4_1, P78352
DLG4_1, P78352, sequence (P78352 62-152): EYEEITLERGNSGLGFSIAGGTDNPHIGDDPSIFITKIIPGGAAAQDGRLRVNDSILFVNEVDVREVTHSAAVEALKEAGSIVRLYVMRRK

[5] = target: T1, GRIP1_5, Q9Y3R0
[6] = target: MAST2, Q6P0Q8
MAST2, Q6P0Q8, sequence (Q6P0Q8 1099-1202): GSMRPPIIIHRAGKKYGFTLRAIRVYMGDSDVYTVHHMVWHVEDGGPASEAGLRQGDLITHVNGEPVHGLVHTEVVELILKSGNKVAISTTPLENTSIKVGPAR

[7] = target: T2, FRMPD1, Q5SYB0
[8] = target: GRIP2_3, Q9C0E4
GRIP2_3, Q9C0E4, sequence (Q9C0E4 238-339): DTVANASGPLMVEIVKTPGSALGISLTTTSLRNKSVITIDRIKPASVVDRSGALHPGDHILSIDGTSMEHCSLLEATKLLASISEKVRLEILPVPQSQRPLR

[9] = target: T3, GRIP1_7, Q9Y3R0
[10] = target: MAGI2_3, Q86UL8
MAGI2_3, Q86UL8, sequence (Q86UL8 600-682): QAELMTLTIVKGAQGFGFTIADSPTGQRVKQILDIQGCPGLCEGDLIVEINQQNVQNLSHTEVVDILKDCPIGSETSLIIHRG

[11] = target: T4, LIN7A, O14910
[12] = target: Inadl_4, Q8NI35
Inadl_4, Q8NI35, sequence (Q8NI35 547-651): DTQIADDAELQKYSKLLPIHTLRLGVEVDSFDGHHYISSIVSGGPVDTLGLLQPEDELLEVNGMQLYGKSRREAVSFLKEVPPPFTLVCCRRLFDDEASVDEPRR

[13] = target: Inadl_3, Q8NI35
Inadl_3, Q8NI35, sequence (Q8NI35 359-469): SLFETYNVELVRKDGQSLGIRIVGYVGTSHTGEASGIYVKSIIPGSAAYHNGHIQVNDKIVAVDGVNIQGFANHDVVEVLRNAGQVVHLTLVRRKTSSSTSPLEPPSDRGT

[14] = target: T5, PCLO, Q9Y6V0
[15] = target: T6, SYNJ2BP, P57105
[16] = target: FRMPD4, Q14CM0
FRMPD4, Q14CM0, sequence (Q14CM0 67-160): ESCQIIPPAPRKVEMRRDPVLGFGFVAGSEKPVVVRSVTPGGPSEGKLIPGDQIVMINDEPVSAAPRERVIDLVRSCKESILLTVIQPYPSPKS

[17] = target: T7, PDZRN3_1, Q9UPQ7
[18] = target: T8, PTPN13_1, Q12923
[19] = target: T9, MPP7, Q5T2T1
[20] = target: GRIP2_6, Q9C0E4
GRIP2_6, Q9C0E4, sequence (Q9C0E4 648-740): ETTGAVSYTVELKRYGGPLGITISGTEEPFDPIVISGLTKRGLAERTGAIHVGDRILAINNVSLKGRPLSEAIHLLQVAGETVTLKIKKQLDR

[21] = target: HTRA1, Q92743
HTRA1, Q92743, sequence (Q92743 360-477): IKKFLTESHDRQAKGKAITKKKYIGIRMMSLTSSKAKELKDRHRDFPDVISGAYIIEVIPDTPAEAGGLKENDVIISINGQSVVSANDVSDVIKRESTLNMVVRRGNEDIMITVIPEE

[22] = target: T10, ARHGAP21, Q5T5U3
[23] = target: SCRIB_2, Q14160
SCRIB_2, Q14160, sequence (Q14160 857-960): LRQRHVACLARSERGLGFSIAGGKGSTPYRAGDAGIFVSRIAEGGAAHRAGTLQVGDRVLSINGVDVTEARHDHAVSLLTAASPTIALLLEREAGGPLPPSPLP

[24] = target: MAGI1_2, Q96QZ7
MAGI1_2, Q96QZ7, sequence (Q96QZ7 456-580): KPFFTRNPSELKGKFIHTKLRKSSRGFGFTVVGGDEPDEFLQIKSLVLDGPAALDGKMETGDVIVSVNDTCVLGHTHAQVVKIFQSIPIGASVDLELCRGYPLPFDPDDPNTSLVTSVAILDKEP

[25] = target: GRID2IP_1, A4D2P6
GRID2IP_1, A4D2P6, sequence (A4D2P6 1-87): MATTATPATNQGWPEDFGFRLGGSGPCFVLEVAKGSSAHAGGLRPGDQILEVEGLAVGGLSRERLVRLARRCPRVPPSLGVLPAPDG

[26] = target: T11, MPP6, Q9NZW5
[27] = target: GRASP, Q7Z6J2
GRASP, Q7Z6J2, sequence (Q7Z6J2 96-193): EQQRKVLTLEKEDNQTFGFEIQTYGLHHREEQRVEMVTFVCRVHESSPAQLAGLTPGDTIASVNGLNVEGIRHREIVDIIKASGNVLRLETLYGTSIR

Binder | pKd [1] | pKd [2] | pKd [3] | pKd [4] | pKd [5] | pKd [6] | pKd [7] | pKd [8] | pKd [9] | pKd [10] | pKd [11] | pKd [12] | pKd [13] | pKd [14] | pKd [15] | pKd [16] | pKd [17] | pKd [18] | pKd [19] | pKd [20] | other results
DDEDRLVIEI [ZNF831, Q5JPB2] | below the threshold | below the threshold | below the threshold | below the threshold | below the threshold | 4.08 | below the threshold | below the threshold | below the threshold | below the threshold | below the threshold | below the threshold | 4.8 | below the threshold | below the threshold | below the threshold | below the threshold | below the threshold | 3.64 | below the threshold | pKd [21]: 5.7; pKd [22]: below the threshold; pKd [23]: below the threshold; pKd [24]: below the threshold; pKd [25]: below the threshold; pKd [26]: below the threshold; pKd [27]: 3.53
PKRSFIESNV [TANC1, Q9C0D5] | below the threshold | below the threshold | 4.41 | 4.73 | below the threshold | 5.2 | below the threshold | below the threshold | below the threshold | 3.98 | 3.49 | below the threshold | 3.56 | below the threshold | 5.28 | below the threshold | 3.87 | below the threshold | below the threshold | below the threshold | pKd [21]: below the threshold; pKd [22]: 3.85; pKd [23]: 4.88; pKd [24]: 4.37; pKd [25]: below the threshold; pKd [26]: 3.76; pKd [27]: below the threshold
IPLDGETEEL [MYOZ1, Q9NP98] | below the threshold | below the threshold | below the threshold | below the threshold | below the threshold | 4.41 | below the threshold | below the threshold | below the threshold | below the threshold | below the threshold | below the threshold | below the threshold | below the threshold | below the threshold | 4.03 | below the threshold | below the threshold | below the threshold | below the threshold | pKd [21]: 3.99; pKd [22]: below the threshold; pKd [23]: below the threshold; pKd [24]: below the threshold; pKd [25]: below the threshold; pKd [26]: below the threshold; pKd [27]: 3.74

Second part, led by results:

pKd [1] | pKd [2] | pKd [3] | pKd [4] | pKd [5] | pKd [6] | pKd [7] | pKd [8] | pKd [9] | pKd [10] | pKd [11] | pKd [12] | pKd [13] | pKd [14] | pKd [15] | pKd [16] | pKd [17] | pKd [18] | pKd [19] | pKd [20] | Binder | other results
below the threshold | below the threshold | below the threshold | below the threshold | below the threshold | below the threshold | below the threshold | below the threshold | below the threshold | 3.83 | below the threshold | below the threshold | below the threshold | below the threshold | below the threshold | below the threshold | below the threshold | below the threshold | 3.61 | below the threshold | QKNRKAQEDL [CES3, Q6UWW8] | pKd [21]: below the threshold; pKd [22]: below the threshold; pKd [23]: below the threshold; pKd [24]: below the threshold; pKd [25]: below the threshold; pKd [26]: below the threshold; pKd [27]: below the threshold
3.52 | below the threshold | below the threshold | below the threshold | below the threshold | 4.1 | below the threshold | below the threshold | below the threshold | 3.64 | below the threshold | below the threshold | 3.55 | below the threshold | below the threshold | below the threshold | 3.51 | below the threshold | below the threshold | below the threshold | QMNQTLPVQV [EPHB3, P54753] | pKd [21]: 4.11; pKd [22]: 4; pKd [23]: below the threshold; pKd [24]: below the threshold; pKd [25]: below the threshold; pKd [26]: below the threshold; pKd [27]: below the threshold

From paper PMC9482650, “Quantitative fragmentomics allow affinity mapping of interactomes” (Nature Communications, 2022)
